Data reported in the supplement of paper PMC9112550, “Optimization of the antimicrobial peptide Bac7 by deep mutational scanning” (BMC Biology, 2022).

Test system: Escherichia coli TOP10
Assay: shrunken log2 fold change of peptide-encoding DNA abundance (4.5 h post-induction vs induction); higher = less antimicrobial activity (less host growth inhibition)
Conditions: time post-induction: 4.5 h; library: site-saturation at positions 5, 18, 19, 20
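Note: peptides expressed intracellularly from a pBAD plasmid library in pooled LB shake-flask culture, induced with 0.3% L-arabinose, DNA abundance read by NGS, three biological replicates, DESeq2 with apeglm shrinkage.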

| Sequence | shrunken log2 fold change |
| --- | --- |
| RRIRHRPPRLPRPRPRPRLCPRP | 0.0797 |
| RRIRSRPPRLPRPRPRPVFTPRP | 0.00672 |
| RRIRSRPPRLPRPRPRPCILPRP | -0.241 |
| RRIRERPPRLPRPRPRPHYLPRP | -0.139 |
| RRIRCRPPRLPRPRPRPTNSPRP | -0.336 |
| RRIRCRPPRLPRPRPRPAGLPRP | 0.206 |
| RRIRHRPPRLPRPRPRPFLWPRP | -0.353 |
| RRIRMRPPRLPRPRPRPYMTPRP | -0.178 |
| RRIRWRPPRLPRPRPRPHQHPRP | -0.214 |
| RRIRFRPPRLPRPRPRPQQTPRP | -0.0409 |
| RRIRTRPPRLPRPRPRPMENPRP | -0.011 |
| RRIRARPPRLPRPRPRPYLTPRP | -0.655 |
| RRIRHRPPRLPRPRPRPTCCPRP | -0.125 |
| RRIRCRPPRLPRPRPRPFWFPRP | -0.245 |
| RRIRVRPPRLPRPRPRPLDHPRP | -0.194 |
| RRIRIRPPRLPRPRPRPHTRPRP | -0.35 |
| RRIRHRPPRLPRPRPRPKFFPRP | -0.0649 |
| RRIRQRPPRLPRPRPRPTWYPRP | -0.174 |
| RRIRKRPPRLPRPRPRPTSDPRP | 0.492 |
| RRIRVRPPRLPRPRPRPAMHPRP | 0.0999 |
| RRIRHRPPRLPRPRPRPGRVPRP | -0.129 |
| RRIRERPPRLPRPRPRPQPKPRP | -0.077 |

| Sequence | shrunken log2 fold change |
| --- | --- |
| RRIRFRPPRLPRPRPRPHNKPRP | 0.0525 |
| RRIRYRPPRLPRPRPRPMTMPRP | -0.615 |
| RRIRERPPRLPRPRPRPQFDPRP | -0.111 |
| RRIRMRPPRLPRPRPRPCSEPRP | 0.514 |
| RRIRHRPPRLPRPRPRPCPHPRP | -0.0102 |
| RRIRQRPPRLPRPRPRPLGDPRP | 0.0938 |
| RRIRWRPPRLPRPRPRPKKSPRP | 0.395 |
| RRIRERPPRLPRPRPRPPISPRP | 0.0892 |
| RRIRKRPPRLPRPRPRPWACPRP | 0.0099 |
| RRIRTRPPRLPRPRPRPDRHPRP | -0.143 |
| RRIRIRPPRLPRPRPRPPWMPRP | -0.0904 |
| RRIRFRPPRLPRPRPRPCCAPRP | -0.0621 |
| RRIRARPPRLPRPRPRPRALPRP | 0.482 |
| RRIRRRPPRLPRPRPRPQGTPRP | 0.294 |
| RRIRYRPPRLPRPRPRPVAGPRP | -0.0147 |
| RRIRKRPPRLPRPRPRPACGPRP | 0.845 |
| RRIRPRPPRLPRPRPRPYHRPRP | -0.00884 |
| RRIRCRPPRLPRPRPRPQSDPRP | -0.69 |
| RRIRHRPPRLPRPRPRPQIDPRP | -0.123 |
| RRIRNRPPRLPRPRPRPHKTPRP | -0.22 |
| RRIRTRPPRLPRPRPRPNVQPRP | -0.429 |
| RRIRPRPPRLPRPRPRPEPMPRP | 0.542 |

| Sequence | shrunken log2 fold change |
| --- | --- |
| RRIRSRPPRLPRPRPRPWRQPRP | 0.11 |
| RRIRPRPPRLPRPRPRPATMPRP | 0.0647 |
| RRIRHRPPRLPRPRPRPHKCPRP | -0.11 |
| RRIRMRPPRLPRPRPRPQSLPRP | -0.0682 |
| RRIRFRPPRLPRPRPRPLAPPRP | 0.193 |
| RRIRLRPPRLPRPRPRPGGVPRP | 0.0323 |
| RRIRPRPPRLPRPRPRPETIPRP | -0.157 |
| RRIRERPPRLPRPRPRPGDKPRP | -0.315 |
| RRIRSRPPRLPRPRPRPERHPRP | 0.0386 |
| RRIRGRPPRLPRPRPRPMAGPRP | 0.0763 |
| RRIRGRPPRLPRPRPRPSCLPRP | 0.571 |
| RRIRLRPPRLPRPRPRPGMFPRP | -0.322 |
| RRIRRRPPRLPRPRPRPKIAPRP | 0.147 |
| RRIRWRPPRLPRPRPRPWGFPRP | 0.27 |
| RRIRRRPPRLPRPRPRPMMLPRP | -0.142 |
| RRIRMRPPRLPRPRPRPRGQPRP | 1.25 |
| RRIRHRPPRLPRPRPRPMTIPRP | -0.081 |
| RRIRHRPPRLPRPRPRPINPPRP | -0.0815 |
| RRIRFRPPRLPRPRPRPSIMPRP | -0.65 |
| RRIRDRPPRLPRPRPRPYRKPRP | -0.0111 |
| RRIRARPPRLPRPRPRPLSPPRP | 0.0788 |
| RRIRERPPRLPRPRPRPYIPPRP | -0.416 |

| Sequence | shrunken log2 fold change |
| --- | --- |
| RRIRNRPPRLPRPRPRPTDCPRP | -0.484 |
| RRIRRRPPRLPRPRPRPRGLPRP | 0.396 |
| RRIRMRPPRLPRPRPRPADLPRP | 0.752 |
| RRIRLRPPRLPRPRPRPYFSPRP | -0.39 |
| RRIRMRPPRLPRPRPRPWQIPRP | -0.224 |
| RRIRTRPPRLPRPRPRPWAHPRP | -0.0917 |
| RRIRSRPPRLPRPRPRPQRLPRP | -0.187 |
| RRIRPRPPRLPRPRPRPGWGPRP | 0.458 |
| RRIRPRPPRLPRPRPRPIMTPRP | 0.0516 |
| RRIRNRPPRLPRPRPRPPVYPRP | 0.111 |
| RRIRTRPPRLPRPRPRPQAIPRP | 0.209 |
| RRIRNRPPRLPRPRPRPHNKPRP | -0.483 |
| RRIRCRPPRLPRPRPRPREIPRP | 0.218 |
| RRIRCRPPRLPRPRPRPALWPRP | 0.621 |
| RRIRWRPPRLPRPRPRPSPEPRP | 0.383 |
| RRIRRRPPRLPRPRPRPEPYPRP | 0.0302 |
| RRIRIRPPRLPRPRPRPMKSPRP | -0.161 |
| RRIRVRPPRLPRPRPRPGYTPRP | -0.208 |
| RRIRIRPPRLPRPRPRPWRIPRP | -0.409 |
| RRIRDRPPRLPRPRPRPFCTPRP | -0.0992 |
| RRIRYRPPRLPRPRPRPRVGPRP | 0.161 |
| RRIRGRPPRLPRPRPRPPHWPRP | 0.96 |

| Sequence | shrunken log2 fold change |
| --- | --- |
| RRIRDRPPRLPRPRPRPGHEPRP | -0.00201 |
| RRIRTRPPRLPRPRPRPPFDPRP | 0.104 |
| RRIRSRPPRLPRPRPRPEVAPRP | 0.102 |
| RRIRKRPPRLPRPRPRPRENPRP | 0.559 |
| RRIRSRPPRLPRPRPRPANRPRP | 0.223 |
| RRIRFRPPRLPRPRPRPSPIPRP | -0.13 |
| RRIRPRPPRLPRPRPRPPKKPRP | 0.0716 |
| RRIRERPPRLPRPRPRPCPMPRP | -0.511 |
| RRIRPRPPRLPRPRPRPPGIPRP | 0.151 |
| RRIRFRPPRLPRPRPRPRMIPRP | -0.517 |
| RRIRRRPPRLPRPRPRPQDWPRP | 0.171 |
| RRIRIRPPRLPRPRPRPQELPRP | -0.169 |
| RRIRFRPPRLPRPRPRPAGLPRP | -0.0796 |
| RRIRIRPPRLPRPRPRPGYQPRP | -0.0481 |
| RRIRFRPPRLPRPRPRPFLLPRP | -0.696 |
| RRIRYRPPRLPRPRPRPMNDPRP | -0.188 |
| RRIRERPPRLPRPRPRPGFIPRP | -0.256 |
| RRIRERPPRLPRPRPRPCVFPRP | 0.0387 |
| RRIRDRPPRLPRPRPRPAGWPRP | 1.05 |
| RRIRLRPPRLPRPRPRPMQYPRP | -0.208 |
| RRIRKRPPRLPRPRPRPDDVPRP | 2.03 |
